Experimental data as given in US20160068605A1 (Janssen / Centocor, published 2016).
Substitutions are numbered along the chain they refer to.

T1: human CD123 SP2 ECD displayed on pDisplay-transfected cells (human, UniProt P26951 101-305)
T1 construct: ECD anchored on the surface of stably transfected HEK293 cells; also called hCD123 SP2 cells; pDisplay CD123SP2
T1 sequence: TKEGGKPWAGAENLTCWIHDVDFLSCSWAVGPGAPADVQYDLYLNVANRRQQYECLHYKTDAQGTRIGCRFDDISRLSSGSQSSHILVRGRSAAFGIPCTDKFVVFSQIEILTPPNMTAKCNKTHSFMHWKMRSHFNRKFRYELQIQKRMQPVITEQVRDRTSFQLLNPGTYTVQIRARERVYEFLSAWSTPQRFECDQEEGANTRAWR

T2: human CD123 SP1 ECD displayed on pDisplay-transfected cells (human, UniProt P26951 20-305)
T2 construct: ECD anchored on the surface of stably transfected HEK293 cells by the PDGFR transmembrane domain; also called hCD123 SP1 cells; hCD123 cells
T2 sequence: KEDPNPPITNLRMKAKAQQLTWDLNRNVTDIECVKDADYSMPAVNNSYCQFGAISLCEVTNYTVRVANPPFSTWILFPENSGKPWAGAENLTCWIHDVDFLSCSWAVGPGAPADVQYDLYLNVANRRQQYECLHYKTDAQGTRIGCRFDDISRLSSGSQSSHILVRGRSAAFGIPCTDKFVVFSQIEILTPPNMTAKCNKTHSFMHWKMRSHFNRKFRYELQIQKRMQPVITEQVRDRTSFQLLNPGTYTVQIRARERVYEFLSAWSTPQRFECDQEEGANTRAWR

T3: Recombinant human CD123 SP2 ECD protein (human, UniProt P26951 101-303)
T3 construct: also called rhCD123 SP2; CD123 ECD SP2
T3 sequence: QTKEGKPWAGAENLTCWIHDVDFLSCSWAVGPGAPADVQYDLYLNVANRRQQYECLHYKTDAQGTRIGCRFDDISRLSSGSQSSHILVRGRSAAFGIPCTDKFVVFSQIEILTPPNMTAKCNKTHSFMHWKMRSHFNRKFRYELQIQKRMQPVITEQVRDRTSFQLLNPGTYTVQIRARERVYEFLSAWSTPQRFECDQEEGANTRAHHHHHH

T4: Recombinant human CD123 SP1 ECD-His tag protein (human, UniProt P26951 20-305)
T4 construct: bought from R&D Systems (#301-R3/CF); biotinylated for some assays; also called rhCD123 SP1; huCD123 ECD SP1
T4 sequence: T2 sequence

B1: bispecific antibody Ab 3978 (bispecific antibody, human IgG4 S228P, kappa, lambda, F234A L235A)
heavy 1: EVQLLESGGGLVQPGGSLRLSCAASGFTFNTYAMNWVRQAPGKGLEWVARIRSKYNNYATYYADSVKGRFTISRDNSKNTLYLQMNSLRAEDTAVYYCVKHGNFGNSYVSWFAYWGQGTLVTVSSASTKGPSVFPLAPCSRSTSESTAALGCLVKDYFPEPVTVSWNSGALTSGVHTFPAVLQSSGLYSLSSVVTVPSSSLGTKTYTCNVDHKPSNTKVDKRVESKYGPPCPPCPAPEAAGGPSVFLFPPKPKDTLMISRTPEVTCVVVDVSQEDPEVQFNWYVDGVEVHNAKTKPREEQFNSTYRVVSVLTVLHQDWLNGKEYKCKVSNKGLPSSIEKTISKAKGQPREPQVYTLPPSQEEMTKNQVSLTCLVKGFYPSDIAVEWESNGQPENNYKTTPPVLDSDGSFLLYSKLTVDKSRWQEGNVFSCSVMHEALHNHYTQKSLSLSLGK
light 1: QAVVTQEPSLTVSPGGTVTLTCRSSTGAVTTSNYANWVQQKPGQAPRGLIGGTNKRAPGTPARFSGSLLGGKAALTLSGAQPEDEAEYYCALWYSNLWVFGGGTKLTVLGQPKAAPSVTLFPPSSEELQANKATLVCLISDFYPGAVTVAWKADSSPVKAGVETTTPSKQSNNKYAASSYLSLTPEQWKSHRSYSCQVTHEGSTVEKTVAPTECS
heavy 2: not shown
light 2: EIVLTQSPGTLSLSPGERATLSCRASQSVSSSYLAWYQQKPGQAPRLLIYGASSRATGIPDRFSGSGSGTDFTLTISRLEPEDFAVYYCQQDYGFPWTFGQGTKVEIKRTVAAPSVFIFPPSDEQLKSGTASVVCLLNNFYPREAKVQWKVDNALQSGNSQESVTEQDSKDSTYSLSSTLTLSKADYEKHKVYACEVTHQGLSSPVTKSFNRGEC
notes: IgG4-PAA; CD3 arm of CD3B217 (first heavy and light chain), CD123 arm of I3RB217 (I3RB18)
B2: bispecific antibody Ab 8876 (bispecific antibody, human IgG4 S228P, kappa, lambda, F234A L235A)
heavy 1: B1 heavy 1
light 1: B1 light 1
heavy 2: not shown
light 2: not shown
notes: also called 8876I
B3: bispecific antibody Ab 7955 (bispecific antibody, human IgG4 S228P, kappa, lambda, F234A L235A)
heavy 1: B1 heavy 1
light 1: B1 light 1 with A2T, A80V
heavy 2: not shown
light 2: B1 light 2
notes: IgG4-PAA; CD3 arm of CD3B218, CD123 arm of I3RB217 (I3RB18)
B4: bispecific antibody Ab 4435 (bispecific antibody, human IgG4 S228P, kappa, lambda, F234A L235A)
heavy 1: B1 heavy 1
light 1: B1 light 1 with A2T, A80V
heavy 2: not shown
light 2: not shown
B5: bispecific antibody Ab 5466 (bispecific antibody, human IgG4 S228P, kappa, lambda, F234A L235A)
heavy 1: EVQLVESGGGLVQPGGSLKLSCAASGFTFNTYAMNWVRQASGKGLEWVGRIRSKYNAYATYYAASVKGRFTISRDDSKNTAYLQMNSLKTEDTAVYYCTRHGNFGNSYVSWFAYWGQGTLVTVSSASTKGPSVFPLAPCSRSTSESTAALGCLVKDYFPEPVTVSWNSGALTSGVHTFPAVLQSSGLYSLSSVVTVPSSSLGTKTYTCNVDHKPSNTKVDKRVESKYGPPCPPCPAPEAAGGPSVFLFPPKPKDTLMISRTPEVTCVVVDVSQEDPEVQFNWYVDGVEVHNAKTKPREEQFNSTYRVVSVLTVLHQDWLNGKEYKCKVSNKGLPSSIEKTISKAKGQPREPQVYTLPPSQEEMTKNQVSLTCLVKGFYPSDIAVEWESNGQPENNYKTTPPVLDSDGSFLLYSKLTVDKSRWQEGNVFSCSVMHEALHNHYTQKSLSLSLGK
light 1: B1 light 1
heavy 2: not shown
light 2: not shown
B6: bispecific antibody Ab 8747 (bispecific antibody, human IgG4 S228P, kappa, lambda, F234A L235A)
heavy 1: B5 heavy 1 with K19R, S41P, G49A, A57N, T80S, A81L, T99A
light 1: B1 light 1 with A2T, A80V
heavy 2: not shown
light 2: not shown
B7: bispecific antibody Ab 7959 (bispecific antibody, human IgG4 S228P, kappa, lambda, F234A L235A)
heavy 1: B5 heavy 1 with K19R, S41P, G49A, A57N, T80S, A81L, T99A
light 1: B1 light 1 with A2T, A80V
heavy 2: not shown
light 2: B1 light 2
notes: IgG4-PAA; CD3 arm of CD3B219, CD123 arm of I3RB217 (I3RB18)
B8: bispecific antibody 9958 Ab (bispecific antibody, human IgG4 S228P, kappa, lambda, F234A L235A)
heavy 1: B5 heavy 1
light 1: B1 light 1
heavy 2: not shown
light 2: B1 light 2
notes: IgG4-PAA; CD3 arm of CD3B220, CD123 arm of I3RB217 (I3RB18)

Target: T1, human CD123 SP2 ECD displayed on …
Test: MSD-CAT on pDisplay cells
Description: (§1) The MSD-CAT was developed in-house as a label-free method to determine affinity using intact cells in a high throughput format. […] Cell lines used were human pDisplay CD123SP1 and pDisplay CD123SP2. […] These samples were prepared in DMEM Glutamax medium containing 0.05% Azide, 1% BSA, 3 mM EDTA. […] After equilibration the plate was centrifuged for 5 minutes ˜1000 rpm and free anti-CD3 detected on the supernatant. […] The assay buffer was removed without washing and 50 uL/well of 0.7 ug/mL of biotinylated antigen in assay buffer were added to MSD plates and incubated overnight (˜16 hours at 4° C.).

| Binder | Kd [nM] |
| --- | --- |
| B1 | 0.528 |
| B2 | 2.45 |
| B3 | 0.436 |
| B4 | 3.7 |
| B5 | 1.72 |
| B6 | 2.21 |
| B7 | 0.461 |
| B8 | 0.538 |

Target: T2, human CD123 SP1 ECD displayed on …
Test: MSD-CAT on pDisplay cells
Description: as §1

| Binder | Kd [nM] |
| --- | --- |
| B1 | 0.153 |
| B2 | 1.29 |
| B3 | 0.136 |
| B4 | 1.53 |
| B5 | 2.43 |
| B6 | 1.76 |
| B7 | 0.149 |
| B8 | 0.121 |

Target: T5, cell-surface CD3 epsilon on primary human T cells (human, UniProt P07766 23-207)
T5 construct: whole, on cells; part of the CD3/TCR complex on the cells
Test: competition flow cytometry on primary human T cells (Human Donor 10357); competitor displaced: Alexa Fluor 488-labelled CD3B146
Text: (§2) The format involved competition binding using a fixed concentration of labeled anti-CD3 mAb of known affinity and increasing concentrations of unlabeled test Abs (Ashkenazi A et al. PNAS: 88:10535, 1991.).

T5 sequence (P07766 23-207): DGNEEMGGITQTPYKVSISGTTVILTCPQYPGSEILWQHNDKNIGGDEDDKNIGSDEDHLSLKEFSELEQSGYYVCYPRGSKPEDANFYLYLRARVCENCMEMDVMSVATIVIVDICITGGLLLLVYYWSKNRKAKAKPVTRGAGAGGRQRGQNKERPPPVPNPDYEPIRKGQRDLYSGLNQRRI

| Binder | IC50 (read off the curve) [nM] |
| --- | --- |
| B5 | ~70 |
| B6 | ~20 |
| B7 | ~20 |
| B8 | ~80 |

Target: T6, cell-surface CD3 epsilon on primary cynomolgus T cells (cynomolgus monkey, UniProt Q95LI5 22-198)
T6 construct: whole, on cells; also called cynomolgus CD3e; Cyno T-cells
Test: flow cytometry competition with labeled CD3B146 on T cells
Text: as §2

T6 sequence (Q95LI5 22-198): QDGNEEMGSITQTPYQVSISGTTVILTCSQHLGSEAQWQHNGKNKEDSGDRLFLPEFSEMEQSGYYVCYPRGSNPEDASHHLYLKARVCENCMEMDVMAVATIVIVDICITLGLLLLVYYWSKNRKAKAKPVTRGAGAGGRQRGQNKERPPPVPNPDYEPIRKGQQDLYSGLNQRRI

| Binder | Kd [nM] |
| --- | --- |
| B1 | 215 |
| B2 | 110 |
| B3 | 169 |
| B4 | 139 |
| B5 | 25.3 |
| B6 | 9.5 |
| B7 | 11.2 |
| B8 | 29.1 |

Target: T5, cell-surface CD3 epsilon on primary …
Test: as above
Text: as §2

| Binder | Kd [nM] |
| --- | --- |
| B1 | 241 |
| B2 | 169 |
| B3 | 210 |
| B4 | 174 |
| B5 | 27.9 |
| B6 | 9.6 |
| B7 | 11 |
| B8 | 43 |

Target: T3, Recombinant human CD123 SP2 ECD protein
Test: SPR Biacore T200, captured antibody
Description: (§3) Kinetic studies were performed at 25° C. using a Biacore T200 (Biacore, Inc., now part of GE Healthcare). […] The carboxymethyl groups of dextran were activated with N-Ethyl-N′-(3-Dimethylaminopropyl)carbodiimide (EDC) and N-hydroxysuccinimide (NHS). The anti-Fc antibody was coupled at pH 4.5 in 10 mM sodium acetate. Any remaining reactive sites on the surface were blocked by reaction with ethanolamine. […] 40-70 RU of antibody were captured. […] Association data was collected for 2 min followed by 10 min of dissociation. The surface was regenerated with 30 μL of 100 mM H3PO4 100 μL/min, followed by 50 mM NaOH. The samples for kinetic analysis were prepared in PBS-based buffer (D-PBS containing 3 mM EDTA and 0.005% surfactant P20). Data reported is the difference in SPR signal between the flow cell containing the captured antibody and a reference cell without captured antibody. Additional instrumental contributions to the signal were removed by subtraction of the data from the blank injection from the reference-subtracted signal. Data were analyzed by fitting association and dissociation phases at all concentrations (global fit) with a 1:1 binding model using the BIAevaluation software (BIAcore, Inc.).

| Binder | Kd [nM] | koff [s⁻¹] | kon [M⁻¹ s⁻¹] |
| --- | --- | --- | --- |
| B1 | 0.356 | 0.0011 | 3.12e+06 |
| B2 | 1.75 | 0.005 | 2.83e+06 |
| B3 | 0.344 | 0.0011 | 3.33e+06 |
| B4 | 1.74 | 0.005 | 2.88e+06 |
| B5 | 1.69 | 0.0049 | 2.88e+06 |
| B6 | 1.63 | 0.0052 | 3.19e+06 |
| B7 | 0.335 | 0.0013 | 3.78e+06 |
| B8 | 0.311 | 0.0011 | 3.57e+06 |

Target: T4, Recombinant human CD123 SP1 ECD-His tag …
Test: SPR Biacore T200, captured antibody
Description: as §3

| Binder | Kd [nM] | koff [s⁻¹] | kon [M⁻¹ s⁻¹] |
| --- | --- | --- | --- |
| B1 | 1.47 | 0.00083 | 564000 |
| B2 | 14.4 | 0.0049 | 343000 |
| B3 | 1.49 | 0.00084 | 562000 |
| B4 | 14.3 | 0.0048 | 337000 |
| B5 | 13.7 | 0.0051 | 371000 |
| B6 | 14.3 | 0.0048 | 337000 |
| B7 | 1.53 | 0.00088 | 579000 |
| B8 | 1.34 | 0.00079 | 587000 |
